Data taken from the supplement of paper PMC10065799, “High-throughput profiling of sequence recognition by tyrosine kinases and SH2 domains using bacterial peptide display” (eLife, 2023).

Tests used:
[1] = biological target: SHP2-C SH2; test: SH2 binding enrichment of the phosphorylated peptide, bacterial display (enrichment ratio); higher = better substrate or ligand; peptides without Tyr show the background
[2] = biological target: c-Src SH2; test: as above
[3] = biological target: Grb2 SH2 (UniProt P62993); test: as above
[4] = biological target: FGFR3 (UniProt P22607); test: phosphorylation enrichment, bacterial display (enrichment ratio); higher = better substrate or ligand; peptides without Tyr show the background
FGFR3, sequence (P22607 whole entry, looked up): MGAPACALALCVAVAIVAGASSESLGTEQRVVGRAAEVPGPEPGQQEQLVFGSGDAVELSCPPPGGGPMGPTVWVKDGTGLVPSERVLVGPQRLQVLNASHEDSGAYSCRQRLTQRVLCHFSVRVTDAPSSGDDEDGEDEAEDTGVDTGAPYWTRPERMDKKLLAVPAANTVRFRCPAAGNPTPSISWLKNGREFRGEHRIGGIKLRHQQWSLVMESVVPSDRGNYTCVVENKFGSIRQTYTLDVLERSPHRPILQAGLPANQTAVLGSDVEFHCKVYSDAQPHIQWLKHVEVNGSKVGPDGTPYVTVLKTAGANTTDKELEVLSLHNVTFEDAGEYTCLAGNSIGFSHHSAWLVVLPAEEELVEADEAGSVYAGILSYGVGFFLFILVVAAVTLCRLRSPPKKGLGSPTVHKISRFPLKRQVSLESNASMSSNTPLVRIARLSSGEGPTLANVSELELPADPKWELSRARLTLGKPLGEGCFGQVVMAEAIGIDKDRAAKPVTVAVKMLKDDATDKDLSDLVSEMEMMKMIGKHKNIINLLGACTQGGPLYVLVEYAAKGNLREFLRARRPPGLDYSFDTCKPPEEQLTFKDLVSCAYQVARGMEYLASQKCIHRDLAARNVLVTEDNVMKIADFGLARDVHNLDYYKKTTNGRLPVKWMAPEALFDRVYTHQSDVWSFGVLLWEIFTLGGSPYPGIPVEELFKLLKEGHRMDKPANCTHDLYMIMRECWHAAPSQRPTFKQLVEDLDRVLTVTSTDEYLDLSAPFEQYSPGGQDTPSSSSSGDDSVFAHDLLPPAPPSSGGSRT

[5] = biological target: Jak2 (UniProt O60674); test: as above
Jak2, sequence (O60674 whole entry, looked up): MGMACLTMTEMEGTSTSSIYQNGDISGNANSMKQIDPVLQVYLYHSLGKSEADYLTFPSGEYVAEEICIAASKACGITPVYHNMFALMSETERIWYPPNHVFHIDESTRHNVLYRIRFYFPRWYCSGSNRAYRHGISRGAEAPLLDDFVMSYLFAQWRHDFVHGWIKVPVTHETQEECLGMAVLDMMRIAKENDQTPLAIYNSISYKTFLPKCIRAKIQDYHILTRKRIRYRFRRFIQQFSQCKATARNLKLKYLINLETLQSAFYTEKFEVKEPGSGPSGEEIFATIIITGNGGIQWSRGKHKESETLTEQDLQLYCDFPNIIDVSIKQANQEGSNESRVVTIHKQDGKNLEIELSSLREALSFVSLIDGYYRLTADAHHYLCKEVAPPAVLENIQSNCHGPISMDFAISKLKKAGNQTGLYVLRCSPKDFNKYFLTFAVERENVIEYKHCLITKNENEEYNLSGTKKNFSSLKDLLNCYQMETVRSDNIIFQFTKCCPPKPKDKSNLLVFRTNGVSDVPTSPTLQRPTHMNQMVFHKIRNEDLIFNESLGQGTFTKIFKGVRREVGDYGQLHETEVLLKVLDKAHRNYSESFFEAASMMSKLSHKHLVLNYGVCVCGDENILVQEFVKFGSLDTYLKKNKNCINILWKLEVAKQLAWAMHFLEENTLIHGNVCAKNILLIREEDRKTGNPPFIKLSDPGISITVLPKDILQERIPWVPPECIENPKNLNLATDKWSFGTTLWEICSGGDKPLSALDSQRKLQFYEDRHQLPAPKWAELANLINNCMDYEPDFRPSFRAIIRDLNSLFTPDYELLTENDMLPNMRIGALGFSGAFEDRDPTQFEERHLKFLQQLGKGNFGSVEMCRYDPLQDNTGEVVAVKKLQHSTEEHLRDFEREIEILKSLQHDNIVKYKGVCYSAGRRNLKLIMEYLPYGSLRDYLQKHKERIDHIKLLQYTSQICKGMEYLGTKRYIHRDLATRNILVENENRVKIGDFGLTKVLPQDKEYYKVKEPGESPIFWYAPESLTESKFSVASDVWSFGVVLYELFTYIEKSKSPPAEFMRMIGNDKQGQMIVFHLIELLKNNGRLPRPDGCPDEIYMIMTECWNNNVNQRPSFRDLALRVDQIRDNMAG

[6] = biological target: EPHB2 (UniProt P29323); test: as above
EPHB2, sequence (P29323 whole entry, looked up): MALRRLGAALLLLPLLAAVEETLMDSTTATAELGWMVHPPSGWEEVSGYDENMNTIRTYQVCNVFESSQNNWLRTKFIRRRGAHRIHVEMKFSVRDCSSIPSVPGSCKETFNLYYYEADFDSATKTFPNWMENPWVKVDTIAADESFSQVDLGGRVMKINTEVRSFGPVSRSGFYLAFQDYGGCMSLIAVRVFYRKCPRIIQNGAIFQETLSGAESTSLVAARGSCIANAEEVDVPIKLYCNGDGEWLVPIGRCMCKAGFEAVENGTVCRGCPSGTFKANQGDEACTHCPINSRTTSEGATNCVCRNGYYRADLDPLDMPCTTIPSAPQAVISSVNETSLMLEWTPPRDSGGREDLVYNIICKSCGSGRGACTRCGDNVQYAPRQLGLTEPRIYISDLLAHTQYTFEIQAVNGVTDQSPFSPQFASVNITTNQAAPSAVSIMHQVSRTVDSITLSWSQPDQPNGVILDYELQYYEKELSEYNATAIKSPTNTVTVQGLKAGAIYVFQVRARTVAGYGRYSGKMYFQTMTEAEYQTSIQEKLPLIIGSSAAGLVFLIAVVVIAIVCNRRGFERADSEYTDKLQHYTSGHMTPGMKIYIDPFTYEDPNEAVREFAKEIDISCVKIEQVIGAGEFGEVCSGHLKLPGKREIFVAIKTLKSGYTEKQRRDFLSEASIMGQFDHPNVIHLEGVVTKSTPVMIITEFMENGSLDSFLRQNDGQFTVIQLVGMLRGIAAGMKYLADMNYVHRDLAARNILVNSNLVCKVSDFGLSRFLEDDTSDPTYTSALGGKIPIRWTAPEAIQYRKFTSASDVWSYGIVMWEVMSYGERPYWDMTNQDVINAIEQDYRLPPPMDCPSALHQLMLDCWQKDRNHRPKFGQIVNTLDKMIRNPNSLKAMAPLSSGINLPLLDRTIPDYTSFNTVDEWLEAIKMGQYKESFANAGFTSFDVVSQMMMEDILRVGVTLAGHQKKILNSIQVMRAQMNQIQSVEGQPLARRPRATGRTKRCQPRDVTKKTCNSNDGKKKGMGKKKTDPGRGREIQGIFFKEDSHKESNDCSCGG

[7] = biological target: MERTK (UniProt Q12866); test: as above
MERTK, sequence (Q12866 whole entry, looked up): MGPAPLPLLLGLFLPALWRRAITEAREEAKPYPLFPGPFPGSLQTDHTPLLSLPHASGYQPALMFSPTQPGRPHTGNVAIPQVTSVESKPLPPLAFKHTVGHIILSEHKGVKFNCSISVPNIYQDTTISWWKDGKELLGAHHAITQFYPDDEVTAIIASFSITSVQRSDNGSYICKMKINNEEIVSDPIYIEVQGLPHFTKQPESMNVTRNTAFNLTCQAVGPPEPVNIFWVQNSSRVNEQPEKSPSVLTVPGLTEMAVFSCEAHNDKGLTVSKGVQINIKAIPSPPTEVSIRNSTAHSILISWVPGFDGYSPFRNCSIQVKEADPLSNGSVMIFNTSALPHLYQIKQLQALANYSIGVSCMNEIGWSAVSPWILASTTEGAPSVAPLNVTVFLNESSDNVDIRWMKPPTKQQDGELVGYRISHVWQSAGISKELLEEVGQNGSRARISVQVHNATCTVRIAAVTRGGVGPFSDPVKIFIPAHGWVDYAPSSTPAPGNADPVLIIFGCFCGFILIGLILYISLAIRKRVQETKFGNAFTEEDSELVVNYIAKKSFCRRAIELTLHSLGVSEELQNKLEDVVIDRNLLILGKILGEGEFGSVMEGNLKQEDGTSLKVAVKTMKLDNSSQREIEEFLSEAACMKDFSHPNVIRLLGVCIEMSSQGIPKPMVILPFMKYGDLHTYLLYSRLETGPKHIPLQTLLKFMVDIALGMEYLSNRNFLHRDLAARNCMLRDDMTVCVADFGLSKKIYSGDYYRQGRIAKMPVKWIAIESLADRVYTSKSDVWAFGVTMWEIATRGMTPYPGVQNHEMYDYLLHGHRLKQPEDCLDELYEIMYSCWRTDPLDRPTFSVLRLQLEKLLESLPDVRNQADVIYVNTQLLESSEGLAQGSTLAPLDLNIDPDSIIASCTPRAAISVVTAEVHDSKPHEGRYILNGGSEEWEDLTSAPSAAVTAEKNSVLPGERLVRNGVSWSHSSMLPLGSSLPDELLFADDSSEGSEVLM

[8] = biological target: Hck (UniProt P08631); test: as above
[9] = biological target: Fyn (UniProt P06241); test: as above
[10] = biological target: FGFR1 (UniProt P11362); test: as above
FGFR1, sequence (P11362 whole entry, looked up): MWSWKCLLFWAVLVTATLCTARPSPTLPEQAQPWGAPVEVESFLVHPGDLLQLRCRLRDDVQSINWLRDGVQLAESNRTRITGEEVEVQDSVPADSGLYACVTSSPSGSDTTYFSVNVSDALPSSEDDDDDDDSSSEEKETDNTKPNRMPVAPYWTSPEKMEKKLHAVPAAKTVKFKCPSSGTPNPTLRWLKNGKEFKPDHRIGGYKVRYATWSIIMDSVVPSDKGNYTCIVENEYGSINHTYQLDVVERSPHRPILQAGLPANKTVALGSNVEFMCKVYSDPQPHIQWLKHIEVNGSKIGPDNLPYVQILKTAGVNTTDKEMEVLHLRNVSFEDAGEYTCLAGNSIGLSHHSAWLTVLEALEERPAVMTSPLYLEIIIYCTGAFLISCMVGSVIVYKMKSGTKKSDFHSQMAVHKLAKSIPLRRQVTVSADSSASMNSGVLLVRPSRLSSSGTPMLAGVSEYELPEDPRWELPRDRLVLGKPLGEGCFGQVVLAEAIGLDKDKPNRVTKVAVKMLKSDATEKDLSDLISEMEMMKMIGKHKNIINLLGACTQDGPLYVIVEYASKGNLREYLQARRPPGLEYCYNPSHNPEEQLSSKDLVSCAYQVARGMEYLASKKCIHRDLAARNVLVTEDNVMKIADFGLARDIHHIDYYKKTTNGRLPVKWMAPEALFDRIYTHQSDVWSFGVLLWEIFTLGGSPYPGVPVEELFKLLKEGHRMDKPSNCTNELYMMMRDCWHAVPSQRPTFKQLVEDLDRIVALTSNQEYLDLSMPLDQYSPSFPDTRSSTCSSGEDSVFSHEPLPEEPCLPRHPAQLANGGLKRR

[11] = biological target: Fes (UniProt P07332); test: as above
[12] = biological target: EPHB1 (UniProt P54762); test: as above
[13] = system: AncSZ; test: as above
[14] = system: Fer (mouse); test: as above
[15] = system: c-Src; test: as above
[16] = system: c-Abl (mouse); test: as above
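Wherever SH2 binding enrichment of the phosphorylated peptide, bacterial display is given: peptide library displayed on the E. coli surface as eCPX fusions, selected cells deep-sequenced, score is each peptide's frequency after selection divided by its frequency in the input.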
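Wherever phosphorylation enrichment, bacterial display is given: 11-residue human phosphosite peptides and single-mutation variants displayed on the E. coli surface, counted by deep sequencing, each peptide's frequency after selection divided by its frequency in the unselected input library; frequency after pTyr selection over input frequency; kinase dosed for 20-30% of maximal phosphorylation in three min.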

| SH2 binding enrichment [1] | SH2 binding enrichment [2] | SH2 binding enrichment [3] | Sequence | phosphorylation enrichment [4] | phosphorylation enrichment [5] | phosphorylation enrichment [6] | phosphorylation enrichment [7] | phosphorylation enrichment [8] | phosphorylation enrichment [9] | phosphorylation enrichment [10] | phosphorylation enrichment [11] | phosphorylation enrichment [12] | phosphorylation enrichment [13] | phosphorylation enrichment [14] | phosphorylation enrichment [15] | phosphorylation enrichment [16] |
| --- | --- | --- | --- | --- | --- | --- | --- | --- | --- | --- | --- | --- | --- | --- | --- | --- |
| 0.548 | 0.702 | 0.688 | HVSISYDIPPT [GAB1_Y307] | 1.01 | 0.826 | 1.18 | 6.11 | 0.644 | 0.645 | 0.677 | 1.24 | 0.522 | 1.33 | 0.732 | 0.478 | 0.735 |
| 0.708 | 0.474 | 0.763 | KEAALYPHLPP [SQSTM1_Y383] | 0.649 | 1.04 | 0.373 | 0.391 | 0.362 | 0.391 | 0.459 | 0.796 | 0.414 | 0.67 | 0.42 | 0.48 | 0.669 |
| 1.29 | 0.586 | 0.692 | CNSFRYGGGGG [NPPA_Y151] | 0.469 | 0.5 | 0.552 | 0.348 | 0.349 | 0.439 | 0.389 | 0.766 | 0.35 | 0.857 | 0.488 | 0.311 | 0.597 |
| 0.614 | 0.746 | 0.796 | MSRNLYSGDCY [DDR2_Y736_Y740C] | 1.15 | 0.69 | 2.35 | 4.75 | 2.27 | 1.96 | 0.951 | 0.993 | 2.11 | 0.985 | 0.811 | 1.49 | 0.581 |
| 0.642 | 0.515 | 1.01 | QGIIIYRAAYF [SLC25A4_Y187] | 1.39 | 1.13 | 0.767 | 0.541 | 0.639 | 0.574 | 0.688 | 1.91 | 0.945 | 1.32 | 0.773 | 0.544 | 1.28 |
| 0.625 | 0.691 | 0.707 | REVPVYIGEDS [SYNM_Y460] | 0.909 | 1.02 | 0.547 | 0.426 | 0.659 | 0.402 | 0.661 | 1.36 | 0.391 | 1.05 | 0.499 | 0.481 | 0.595 |
| 0.866 | 1.23 | 1.02 | NARGLYYKLHN [GATA2_Y376_C373R] | 1.02 | 2.12 | 0.586 | 2.59 | 0.954 | 0.572 | 1.08 | 0.975 | 0.595 | 1.11 | 0.496 | 0.695 | 0.874 |
| 2.11 | 1.27 | 1.25 | ALRHFYKLNII [ETV6_Y402_YF] | 0.628 | 0.875 | 0.535 | 0.44 | 0.482 | 0.471 | 0.462 | 1.03 | 0.522 | 0.828 | 0.502 | 0.439 | 0.84 |
| 0.643 | 0.551 | 0.732 | GPGLVYGVANK [FLNB_Y1833] | 0.483 | 0.718 | 0.405 | 0.422 | 3.44 | 1.59 | 0.648 | 0.689 | 0.421 | 0.531 | 0.51 | 2.83 | 0.545 |
| 0.805 | 0.6 | 0.882 | CDYKKYGKGLR [ZNF445_Y433_Y428C] | 0.445 | 0.563 | 0.362 | 0.335 | 0.349 | 0.364 | 0.404 | 0.576 | 0.284 | 0.565 | 0.318 | 0.299 | 0.525 |
| 0.709 | 0.75 | 0.641 | PLGPLYASSNP [INSR_Y992] | 0.742 | 0.941 | 1.01 | 1.49 | 4.49 | 1.27 | 0.683 | 1.65 | 1.14 | 0.96 | 1.82 | 1.35 | 1.47 |
| 0.96 | 0.698 | 1.13 | LITTLYIDFLG [KCNQ1_Y267_G269D] | 1.19 | 1.39 | 1.06 | 0.704 | 0.818 | 1.41 | 1.09 | 1.96 | 1.15 | 1.42 | 0.749 | 1.22 | 1.07 |
| 1.13 | 0.783 | 1.22 | VASMFYTLVIP [OR8K3_Y277_I275M] | 2.37 | 1.51 | 0.82 | 5.7 | 0.667 | 0.661 | 2.79 | 1.14 | 1.13 | 1.96 | 3.5 | 1.38 | 0.691 |
| 0.893 | 0.628 | 0.805 | EEKSCYILHSS [PATJ_Y783_E780K] | 0.704 | 0.744 | 0.647 | 0.449 | 0.651 | 0.753 | 0.755 | 1.22 | 0.669 | 1.08 | 0.622 | 0.514 | 0.779 |
| 1.26 | 4.93 | 3.04 | KSPGEYVNIEF [IRS1_Y896] | 1.06 | 0.623 | 0.736 | 0.546 | 0.575 | 0.49 | 1.35 | 0.812 | 0.653 | 0.906 | 0.505 | 0.47 | 0.706 |
| 0.587 | 0.506 | 0.838 | EDDPEYMRLRN [ADD2_Y31] | 0.887 | 1.12 | 0.594 | 0.414 | 0.724 | 0.601 | 0.785 | 1.17 | 0.674 | 1.2 | 0.589 | 0.509 | 0.823 |
| 0.53 | 0.644 | 0.725 | LQEQNYLAVDS [FAM114A1_Y115] | 3.19 | 1.39 | 2.83 | 1.17 | 0.946 | 1.47 | 3.67 | 2.5 | 6.07 | 2.1 | 4.67 | 0.673 | 0.817 |

| SH2 binding enrichment [1] | SH2 binding enrichment [2] | SH2 binding enrichment [3] | Sequence | phosphorylation enrichment [4] | phosphorylation enrichment [5] | phosphorylation enrichment [6] | phosphorylation enrichment [7] | phosphorylation enrichment [8] | phosphorylation enrichment [9] | phosphorylation enrichment [10] | phosphorylation enrichment [11] | phosphorylation enrichment [12] | phosphorylation enrichment [13] | phosphorylation enrichment [14] | phosphorylation enrichment [15] | phosphorylation enrichment [16] |
| --- | --- | --- | --- | --- | --- | --- | --- | --- | --- | --- | --- | --- | --- | --- | --- | --- |
| 0.806 | 0.929 | 0.927 | SLIEHYEPSET [PLCD1_Y258_R257H] | 0.704 | 0.983 | 0.548 | 0.422 | 0.535 | 0.513 | 0.586 | 0.977 | 0.541 | 1.05 | 0.525 | 0.446 | 0.624 |
| 0.917 | 0.98 | 0.936 | QRDSSYFWEIE [RAF1_Y340_YF] | 1.25 | 3.31 | 0.968 | 0.774 | 0.934 | 0.966 | 1.04 | 1.92 | 0.776 | 2.48 | 0.813 | 0.712 | 0.989 |
| 1.4 | 1.43 | 1.7 | KACKHYLTTRT [ZBTB5_Y118] | 0.64 | 0.978 | 0.507 | 0.563 | 0.501 | 0.505 | 0.448 | 0.964 | 0.46 | 0.712 | 0.534 | 0.659 | 0.859 |
| 1.19 | 0.49 | 1.05 | AHARMYGVLPW [PLP1_Y207_D203H] | 0.421 | 0.478 | 0.462 | 0.507 | 3.4 | 2.35 | 0.503 | 0.617 | 0.519 | 0.496 | 0.402 | 2.35 | 0.58 |
| 0.609 | 0.441 | 0.686 | KKRSSYGNSSD [SELENOK_Y52_R50S] | 0.476 | 0.523 | 0.462 | 0.556 | 0.475 | 0.438 | 0.386 | 0.508 | 0.4 | 0.57 | 0.422 | 0.515 | 0.489 |
| 1.53 | 1.75 | 1.24 | YISLIYTNYEA [GSTP1_Y109] | 3.6 | 1.23 | 1.71 | 3.44 | 2.83 | 3.72 | 4.5 | 1.23 | 1.7 | 1.68 | 1.72 | 4.21 | 1.31 |
| 0.652 | 0.485 | 0.672 | KMGNIYRTEFG [MRPL3_Y265_YF] | 0.514 | 0.448 | 0.34 | 0.477 | 0.488 | 0.536 | 0.482 | 0.5 | 0.337 | 0.535 | 0.393 | 0.532 | 0.471 |
| 0.759 | 0.469 | 0.915 | GHNNVYISEHV [GRIN2A_Y1423_D1421N] | 0.463 | 0.769 | 0.459 | 0.419 | 0.476 | 0.475 | 0.421 | 0.6 | 0.374 | 0.734 | 0.393 | 0.425 | 0.522 |
| 2.06 | 0.746 | 0.907 | GITTGYLVLKE [DNMT3B_Y588_A585T] | 0.572 | 0.616 | 0.532 | 0.334 | 0.438 | 0.404 | 0.456 | 0.797 | 0.39 | 0.668 | 0.542 | 0.371 | 0.389 |
| 0.607 | 0.482 | 0.764 | SLESAYPEVSQ [TTF1_Y357_G360V] | 0.611 | 1.09 | 0.792 | 0.471 | 0.858 | 0.447 | 0.507 | 0.941 | 0.514 | 0.951 | 0.4 | 0.523 | 1.55 |
| 0.608 | 1.23 | 0.792 | NSNAAYEESHF [LRIF1_Y714_Q716E] | 0.614 | 0.87 | 0.499 | 0.385 | 0.496 | 0.434 | 0.443 | 0.919 | 0.483 | 0.849 | 0.504 | 0.475 | 0.659 |
| 3.79 | 0.688 | 0.997 | TTPGPYRSIFF [MPG_Y71_YF] | 1.07 | 0.626 | 0.546 | 0.663 | 0.521 | 0.514 | 0.551 | 0.923 | 0.493 | 1.07 | 0.368 | 0.728 | 0.706 |
| 0.986 | 0.558 | 0.923 | KGLMPYGQPRP [SRRT_Y798_Q793K] | 0.366 | 0.426 | 0.371 | 0.527 | 0.325 | 0.36 | 0.388 | 0.727 | 0.365 | 0.444 | 0.363 | 0.378 | 0.455 |
| 0.475 | 1.67 | 0.863 | LEDPMYDIIRD [RP9_Y142_H137L] | 1.29 | 2.7 | 6.72 | 7.83 | 7.93 | 7.34 | 1.14 | 2.32 | 4.98 | 3.53 | 6.19 | 7.86 | 4.38 |
| 1.52 | 1.73 | 1.77 | PSDPSYEDTRE [BMPR1A_Y467_M470T] | 1.18 | 2.37 | 0.883 | 0.827 | 1.19 | 0.887 | 0.813 | 2.73 | 0.765 | 1.66 | 0.894 | 1.14 | 1.71 |
| 0.787 | 0.912 | 1.11 | TRSFKCLLLSM [NF1_Y491_Y491C_YF] | 0.609 | 1.09 | 0.581 | 0.444 | 0.492 | 0.474 | 0.531 | 1.08 | 0.551 | 0.969 | 0.496 | 0.4 | 0.713 |
